Measurements reported in the supplement of paper PMC10126150.
± gives the standard deviation of the averaged measurements.

Tested on: ATP
Experiment: switch fluorescence ratio, 500 uM ATP over buffer (Cy3 cluster intensity, sum of 5 cycles each) (fold (ratio)); higher = stronger signal-on switching upon ATP binding; sequences stand for … in TCGTCGGCAGCGTCAGATGTGTATAAGAGACAGTTTTTTTTTTTTTTTTTTTTTTTTT…TC
Conditions: aptamer strand: ATP DNA aptamer (quencher-CACCTGGGGGAGTATTGCGGAGGAAGG + anchor), 100 nM annealed; ATP concentration: 500 uM
How it was run: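 Per cluster, summed Cy3 intensity from the target cycles was divided by that from the buffer cycles to give the fluorescence ratio, then averaged per switch-domain sequence. Clusters outside 100-1000 RFU were excluded. The Cy3-labelled switching-strand clusters, on a modified Illumina MiSeq flow-cell, were annealed to 100 nM quencher-labelled ATP aptamer and imaged in selection buffer, then after 15 min with 500 uM ATP at 22 °C, for five cycles with NaOH stripping and re-annealing between them.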
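Also: ATP exposure 15 min at 22 °C before imaging.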

Sequence | switch fluorescence ratio
TTTCTTCAAA | 0.997 ± 0.02
ATAGGATTTT | 0.985 ± 0.034
GGGGGCAGGC | 0.964 ± 0.053
GAATGGGGAA | 1.02 ± 0.021
GGATTGGGGG | 0.995 ± 0.02
GGTTTTATAC | 1.04 ± 0.02
CAGCTCAGCC | 1 ± 0.042
CGCCAGGGGA | 1.43 ± 0.59
TTGATTTCAG | 1.01 ± 0.013
CGGGTCTAAA | 0.9966 ± 0.0027
GCCATACGCG | 1.03 ± 0.016
TTTATAGGTT | 1.02 ± 0.069
TCGAGACTAG | 1.02 ± 0.029
CGCTTCGGTT | 0.963 ± 0.032
AACTAGGGCT | 0.976 ± 0.028
AGGATTTAGG | 0.983 ± 0.031
CTGGTTACAC | 1.03 ± 0.033
GTGAGGGTTG | 0.975 ± 0.03
ATGAAAATTT | 1.05 ± 0.017
ATTCGCGAGG | 0.982 ± 0.027
GCTCGAGATT | 1.026 ± 0.0027
CGGTGCGGGC | 1 ± 0.09
TTGGGCGGTT | 1.13 ± 0.25
TAGTGGGCGG | 1.07 ± 0.046
TCGTTATATT | 0.98 ± 0.015

Sequence | switch fluorescence ratio
GCTGTCCGGA | 1.048 ± 0.0054
AGGTGCTGTG | 1.01 ± 0.051
AAGCGCCTTT | 0.985 ± 0.02
GAAATCAGCA | 1.03 ± 0.023
TTTTTAATCC | 1.05 ± 0.017
TAGGGAGGGT | 1.11 ± 0.2
AACCAGTGGC | 1.06 ± 0.079
AAATGAATTT | 0.976 ± 0.014
GAACCTCGTG | 1.03 ± 0.035
AGCGGGGGAG | 1.01 ± 0.012
TGGTATTGCT | 0.9955 ± 0.0098
GATCCGCTGG | 1.11 ± 0.012
ATTAGTCAGG | 1.03 ± 0.019
TCCTAGTCAT | 1.05 ± 0.036
CGGGAAATAG | 1.06 ± 0.02
ATTATGTACT | 1.05 ± 0.022
GGGTGGGGAT | 1 ± 0.02
AAATACCGCA | 1.48 ± 0.17
TTTTGCCAGT | 1.11 ± 0.23
GAGGTGTAGC | 1.01 ± 0.028
GGATTAGCGA | 0.975 ± 0.025
TCGAAGGGT | 1 ± 0.037
ATGTGGCCGG | 0.997 ± 0.024
TTCTGTACGG | 1.02 ± 0.014
CCCTTGTACG | 1.03 ± 0.036

Sequence | switch fluorescence ratio
GAAGATTTGG | 0.981 ± 0.04
TTGTAAGGGG | 1.009 ± 0.0031
TGCTAGACTG | 1.03 ± 0.09
GAGGAGGTTT | 0.968 ± 0.017
GACTGACTGG | 0.996 ± 0.018
TTTGTAATTT | 1.01 ± 0.021
TATCGAAGTG | 0.993 ± 0.019
TCAAAACTTG | 1.01 ± 0.057
ACGGTCAGGG | 1.046 ± 0.0074
GCTTTTGGGC | 0.963 ± 0.023
CGATAATTTG | 0.994 ± 0.015
CACGGCGACA | 1.15 ± 0.027
ATAGTTGGAT | 0.98 ± 0.011
TATTAAGGGT | 0.979 ± 0.029
GGTATATGTC | 0.994 ± 0.05
TTTGAATGTA | 1.011 ± 0.0078
ATGAAGCAGG | 1.15 ± 0.058
ATATCTTATG | 0.964 ± 0.023
ACAAAGACCT | 1.42 ± 0.031
TTTTGTTGTA | 0.996 ± 0.024
CGGTGGGCGA | 0.987 ± 0.048
TATCGGCTGG | 1.01 ± 0.025
CCCAAACCTG | 1.13 ± 0.068
TAACATCTGT | 0.975 ± 0.021
TTTCTCGTAC | 1.11 ± 0.012

Sequence | switch fluorescence ratio
AGGCGTGGCT | 0.982 ± 0.064
TGGAAATAAG | 1.03 ± 0.047
GCAGTAAGTT | 0.978 ± 0.061
CATTATCACG | 1.075 ± 0.01
TTATCTGATT | 0.9952 ± 0.0017
TCATAGCGCC | 1.01 ± 0.045
CGGACACTTT | 1.019 ± 0.0091
TATGTTTTGT | 1.02 ± 0.041
GTTAGTAATC | 1.06 ± 0.014
AGTTGGATGC | 0.965 ± 0.068
TATTAACGTT | 1.015 ± 0.0039
TGGGCCGCGC | 1.04 ± 0.046
ATGGTTTAA | 1 ± 0.044
GATTTAACGG | 1.01 ± 0.038
GGGGGTTGTT | 0.997 ± 0.025
TAATGGTTTT | 1.02 ± 0.025
TGTGTTTACC | 1.01 ± 0.043
GATCGAAACT | 1.01 ± 0.081
AGGGTCCACG | 0.947 ± 0.015
TAGCATGTGG | 1.0006 ± 0.0008
TCGCCTGGGG | 1.1 ± 0.0046
ACTCGCGGGC | 1.98 ± 0.21
GGGGAGTGCA | 1 ± 0.035
AAATGTGCGA | 0.977 ± 0.019
AAGACCGGGG | 1.0215 ± 0.00047

Sequence | switch fluorescence ratio
TTTCAATGTC | 0.97 ± 0.11
TTGAGGTTA | 1.07 ± 0.069
TGAGCTATTG | 0.997 ± 0.015
TGGTTCGTTT | 0.995 ± 0.055
GTATTGGGTA | 0.99 ± 0.028
TGGTTGTGCG | 1.04 ± 0.018
AGTTATTTGA | 1 ± 0.031
TGGGGGGTCC | 1.01 ± 0.039
TTAAGCCCTT | 1.04 ± 0.036
CGAAAGCTTG | 1.05 ± 0.02
TCGTTGGCAA | 2.3 ± 0.23
GAGCAATATA | 5.13 ± 1.7
GTTGTACGAG | 0.9824 ± 0.0058
TTCGGATGAG | 0.977 ± 0.041
TGTTAGTGGC | 1 ± 0.04
GAGAGGGTTG | 0.971 ± 0.033
ATGGGGTCTG | 1.05 ± 0.095
CGCGCTACTT | 1.73 ± 0.039
GGATTTATGT | 0.94526 ± 0.00032
CAGGGGGAAC | 1.04 ± 0.061
ATGTGTAGGG | 0.9711 ± 0.0014
TACTTTTATA | 1.03 ± 0.017
ATGGGCTGAG | 0.992 ± 0.017
AGCAAGTATC | 1.24 ± 0.033
AAGGTCAAGG | 1.015 ± 0.0056

Sequence | switch fluorescence ratio
CGTGGGCGCC | 0.972 ± 0.026
ATTGTAGGC | 1.01 ± 0.029
TTCGGTCCGT | 0.981 ± 0.026
GCAAGAGGGT | 1 ± 0.028
CACCGAGTTA | 1.04 ± 0.032
GGTTAAGGCA | 1.022 ± 0.0034
CATTGGGTTG | 0.9633 ± 0.0019
CGTATTGGGG | 1.04 ± 0.017
CGTCAGGTGT | 3.713 ± 0.012
AAAATGATTT | 1.02 ± 0.043
ATTTGTTGGT | 0.991 ± 0.013
AAATTGCTGT | 1.012 ± 0.0069
CGTAAGGGTT | 1.008 ± 0.0063
GAAGGGTCTG | 0.969 ± 0.012
CATATCTAGC | 0.997 ± 0.034
GGGGTAGCAT | 0.986 ± 0.028
CGGTTAGGCG | 1.06 ± 0.012
CTGGCTGCGG | 1.01 ± 0.039
TTTAATTTA | 1.01 ± 0.012
ATTAGACGGA | 1.058 ± 0.0045
TGAGAATGTT | 1.09 ± 0.19
AATAGCATGG | 1.03 ± 0.024
AGGGCAGTAT | 1.06 ± 0.11
TCGTTGAATG | 0.956 ± 0.014
CGGGAGGTAA | 0.9863 ± 0.0038

Sequence | switch fluorescence ratio
TGTTTTTTGT | 0.992 ± 0.034
TGCAGCTTGC | 1.25 ± 0.24
GATAAAGTGG | 0.995 ± 0.041
AAAGTCTATT | 0.99 ± 0.02
AACCCGTTTC | 1.09 ± 0.07
GAGGGCTTTG | 1 ± 0.031
CCTGCGTCTG | 1.9 ± 0.065
TGGGAGGAAA | 1.01 ± 0.039
ATCAGCAACG | 1.01 ± 0.026
CTAAACCGGT | 0.989 ± 0.015
TCCAGGTTGG | 1.15 ± 0.048
TAAGTGAGAA | 0.983 ± 0.038
TTATTTATTA | 1.0338 ± 0.00047
TTTAAGGTAG | 0.993 ± 0.018
GTATTTACTT | 1.02 ± 0.012
TAAGATCTTA | 0.997 ± 0.015
ATATTTTAGG | 0.996 ± 0.031
TTATTCGGCG | 1 ± 0.032
ATTCTTTTGG | 0.9726 ± 0.0041
TTAGGATAT | 1.02 ± 0.041
GAGGTGGTTA | 0.976 ± 0.015
TAGGAAAAAA | 1.03 ± 0.033
TCAGTTGACT | 1.011 ± 0.0055
GGAACAGCTT | 0.983 ± 0.017
CGGTGCTGGG | 0.999 ± 0.04

Sequence | switch fluorescence ratio
GGCACTAAGT | 1.04 ± 0.036
ATGAGTAGGA | 1.017 ± 0.0061
TGAATACTTT | 0.996 ± 0.044
GTGAAGGGGA | 1.09 ± 0.11
GGATATACTT | 1.03 ± 0.024
TTTTAAAATT | 1 ± 0.035
AGGCGGGTAA | 1.022 ± 0.0082
GTTTTCGTTT | 0.9711 ± 0.0058
TCATTTATGT | 0.9665 ± 0.0014
TATACGGCCG | 1 ± 0.0059
TAAGAGCTGA | 0.985 ± 0.023
TAGCGTTTGG | 1.01 ± 0.045
CATGTAGTA | 0.987 ± 0.028
TTAGTTTTCT | 0.96 ± 0.013
GCATGGGGGG | 1.02 ± 0.042
AAGTTACGT | 1.06 ± 0.025
GAGGTATCAT | 0.9847 ± 0.0073
TTTCTGGCTA | 1.08 ± 0.053
ATAATTTCTG | 0.99 ± 0.016
CTATTCCGAG | 1.16 ± 0.066
TTTTGTTCGG | 0.99 ± 0.029
AAATTATGCG | 0.99 ± 0.023
CTATCTTCGG | 0.974 ± 0.038
GAACCGTAAA | 1.128 ± 0.0073
GGATAAGGGG | 1.02 ± 0.039
